According to paper PMC12193089, “Genome-Wide Identification, Plasma Membrane Localization, and Functional Validation of the SUT Gene Family in Yam (Dioscorea cayennensis subsp. rotundata)” (International Journal of Molecular Sciences, 2025):

Substrate: OC[C@H]1O[C@@](CO)(O[C@H]2O[C@H](CO)[C@@H](O)[C@H](O)[C@H]2O)[C@@H](O)[C@@H]1O
Experiment: cells, lysate or membranes
Type: cell-based, Dioscorea cayenensis
Conditions: PBS pH 5.5, 30 °C, labelled compound, methods print a final sucrose concentration of 100 mM, at odds with a μM Km

B1: DrSUT1 (Dioscorea cayenensis subsp. rotundata) (protein)
chain: MDAVSIRVPYRNLKEAELELEMGHLNGDPSGEIHDLGSRPSGGLPPSFPSASPSSPDEYGSSDASHRSQPRSSMKTLVLSCIVAAGVQFGWALQLSLLTPYIQTLGIEHAFSSFIWLCGPITGFIVQPCVGIWSDKCTLKLGRRRPFILAGSLMISFAVILIGFAADIGYLLGDTDQDCRSYKGPRWRAAAIFVIGFWMLDLANNTVQGPARALLADLSGPDQCNSANAIFCSWMALGNILGFSSGANGNWHRWFPFLTTKACCEACGNLKAAFLVAVIFLMFCTFVTLYFAKEVPLEAKPTQQFSDGAPLLNDKQQHGHRGSPTNSPKLENGEKLSVDLMADKASSRNPSNFDRNAKNDEMEALSDGPGAVLVKLLTSLRHLPPGMYSVLLVMALTWSSWFPFFLFDTDWMGREVYRGDPSGTESEIGSYQKGVRDGAFGLLLNSVVLLVASFLIDPICRRMGARMVWAMSNFIVFICMAATTIISLWSINEHLTGIQHVVGANKAVRVGALVIFSLLGFPLAITYSVPFSVTAELTADSGGGQGLATGVLNLAIVIPQMVVALGAGPWDALFGGGNIPAFALASAFALAASFLAFKRLPTLSGSYSSVGFHGFG
notes: no tag told
- Km: 76.69 µM
